# In the supplement of paper PMC12042874:
# ± gives the uncertainty stated by the source.
# Experiment: amyloid nucleation score (Sup35N fusion, yeast selection) (log enrichment); library NNK1; higher = more nucleation; inactive = no reads after selection
# Method in brief: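 The nucleation score, computed with DiMSum, is the log enrichment of output over input reads, centred on the mode score of non-aggregating sequences. Sequences with under 100 input reads were dropped. Reads were generated by Illumina sequencing of plasmid inserts from psi-negative yeast with Sup35N fused to peptides of 20 random codons, induced with 100 μM copper sulfate for 24 hours and grown 7 days at 30°C on medium lacking adenine and uracil.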
row,Substance,amyloid nucleation score
1,CSGNSSGVRCMVRSNRS,0.523 ± 0.38
2,TDGIAVSFTNHDVWMVDAFV,0.241 ± 1.4
3,RSYEDGALVVVGMRFGDRLR,0.336 ± 0.87
4,ACYNGHTSRWLR,1.09 ± 0.85
5,VLANDVVPNSIYKKVSITYC,0.884 ± 0.7
6,DRRMSTTVMGRFVWRDRYVG,0.526 ± 0.65
7,MTWMPFGPHTAGMMGHLYFG,-0.398 ± 0.64
8,AFLQLDS,0.665 ± 0.36
9,NPRPH,-0.601 ± 0.62
10,SIQLMNVFDQVVSQASIKHG,inactive
11,CVFVRMMCTRFAAHHCVLSG,-0.143 ± 1.2
12,VDGMGYDLIMCLYYNGLWAN,0.515 ± 0.54
13,QYVIQAYACTWCRCGKLQSG,7.693 ± 0.065
14,HFWLDARSRAKKPAQGIIKG,-0.426 ± 0.34
15,MRSKREMSFMTHEILVCNDA,0.509 ± 0.31
16,KELPSSSTCLKFS,-0.155 ± 0.44
17,YVRFYLFNFVGLRQKFMI,2.74 ± 0.17
18,MLVDIGRC,-1.31 ± 1.6
19,YSGWEEITVFFSDARV,-0.115 ± 1.3
20,MYRYLPNSTLLSRVLDTSSY,inactive
21,MEPYYVRNSCFCRIRDRNF,-0.21 ± 0.33
22,TRAAYLGRGREMRCIKVAFW,1.31 ± 0.93

row,Substance,amyloid nucleation score
1,YVVCYFDNLFLSSISLSLRA,8.521 ± 0.058
2,QFLLLPGNHHRFRSRHIRTL,-0.255 ± 0.26
3,TWRCQLIYTCGNVSRKPVLL,-0.148 ± 0.5
4,FFYRPYVFMCLFYMVSRAGS,4.41 ± 0.078
5,AGVCYWTLDILPY,0.789 ± 0.9
6,SLLYSITNVCTLRGRMCCLA,0.116 ± 0.45
7,MMSPR,-0.921 ± 2.4
8,QSGAVTSSVRPQRVEVVRVV,-0.904 ± 0.88
9,YVQFYGWRTWDLYWYLEWVV,-1.07 ± 0.8
10,NIRKEGFFRFSPSTADTTCR,0.618 ± 0.71
11,LKASMW,0.322 ± 0.37
12,MKQQAQPVFVWSSAGGGCES,-0.606 ± 0.47
13,FTVLVELALFMRSCLSRGFN,-0.261 ± 0.27
14,LLSYPIPDMYSIEATTKRRI,0.133 ± 1.4
15,MICKMNYQVRIPINFSYCLN,2.43 ± 0.15
16,CQNYSHLWGEVTEWLCQRGP,3.39 ± 0.17
17,TVYGGLWAFSKTICCVSPKR,7.228 ± 0.056
18,KEIINGCRR,5 ± 0.1
19,RGPLVFYLFTFWLCDRGNVL,0.046 ± 0.58
20,GVQAVSSPTSVFK,0.462 ± 0.85
21,VRAELVTVGCLRRATYYRPK,-0.319 ± 1.2
22,SVVRNEIYRYYKCSKTVSIW,-0.513 ± 0.33

row,Substance,amyloid nucleation score
1,YVRMACMLGLHSRYWMHRVV,-0.267 ± 0.6
2,LVSMSYSVREDDFISLLWGV,inactive
3,NQFMHGTETYFEDINALVWG,1.43 ± 0.66
4,CNMHATETLNIRCVNSDAC,0.046 ± 1.6
5,EPLLHSG,inactive
6,VWSAMDKALLDSGDGSPMG,0.138 ± 0.36
7,CRFKYHLRV,-1.21 ± 2.4
8,IVTCESGCRLKSSRDKCPSR,0.284 ± 0.59
9,NGTIHMPLVWGYKLDRPRGW,0.969 ± 0.7
10,RLDIDFNGLRMFLNVFLMVV,-0.188 ± 0.2
11,CDIIYFACGDREV,inactive
12,RSGTPQSERDGGGFTEVKKT,-0.205 ± 0.42
13,MLGKNSSCESNMEYVFRSCL,0.244 ± 0.23
14,LTSCLLPFDPLSNDNYKGVW,1.78 ± 0.65
15,FYPIYGFRWTIFYQPALYNL,-1.08 ± 1.7
16,RSEGRRGRFNMWSLAFGDVP,-0.218 ± 0.3
17,TGNGTCCESFSRSDKENSDA,inactive
18,SVHKWSSKTAMSLRTTYK,0.284 ± 0.69
19,KQECQYCWSG,-1.15 ± 0.36
20,WCMATCLIMVCANYVICLVG,0.927 ± 0.55
